B1: Ataxin-1 (Homo sapiens), P54253 (parent)
chain: MKSNQERSNECLPPKKREIPATSRSSEEKAPTLPSDNHRVEGTAWLPGNPGGRGHGGGRHGPAGTSVELGLQQGIGLHKALSTGLDYSPPSAPRSVPVATTLPAAYATPQPGTPVSPVQYAHLPHTFQFIGSSQYSGTYASFIPSQLIPPTANPVTSAVASAAGATTPSQRSQLEAYSTLLANMGSLSQTPGHKAEQQQQQQQQQQQQHQHQQQQQQQQQQQQQQHLSRAPGLITPGSPPPAQQNQYVHISSSPQNTGRTASPPAIPVHLHPHQTMIPHTLTLGPPSQVVMQYADSGSHFVPREATKKAESSRLQQAIQAKEVLNGEMEKSRRYGAPSSADLGLGKAGGKSVPHPYESRHVVVHPSPSDYSSRDPSGVRASVMVLPNSNTPAADLEVQQATHREASPSTLNDKSGLHLGKPGHRSYALSPHTVIQTTHSASEPLPVGLPATAFYAGTQPPVIGYLSGQQQAITYAGSLPQHLVIPGTQPLLIPVGSTDMEASGAAPAIVTSSPQFAAVPHTFVTTALPKSENFNPEALVTQAAYPAMVQAQIHLPVVQSVASPAAAPPTLPPYFMKGSIIQLANGELKKVEDLKTEDFIQSAEISNDLKIDSSTVERIEDSHSPGVAVIQFAVGEHRAQVSVEVLVEYPFFVFGQGWSSCCPERTSQLFDLPCSKLSVGDVCISLTLKNLKNGSVKKGQPVDPASVLLKHSKADGLAGSRHRYAEQENGINQGSAQMLSENGELKFPEKMGLPAAPFLTKIEPSKPAATRKRRWSAPESRKLEKSEDEPPLTLPKPSLIPQEVKICIEGRSNVGK

Variants of: B1
Details: with wdfy3_human WDFY3, Q8IZQ1
Sequence of wdfy3_human WDFY3, Q8IZQ1 (Q8IZQ1 whole entry): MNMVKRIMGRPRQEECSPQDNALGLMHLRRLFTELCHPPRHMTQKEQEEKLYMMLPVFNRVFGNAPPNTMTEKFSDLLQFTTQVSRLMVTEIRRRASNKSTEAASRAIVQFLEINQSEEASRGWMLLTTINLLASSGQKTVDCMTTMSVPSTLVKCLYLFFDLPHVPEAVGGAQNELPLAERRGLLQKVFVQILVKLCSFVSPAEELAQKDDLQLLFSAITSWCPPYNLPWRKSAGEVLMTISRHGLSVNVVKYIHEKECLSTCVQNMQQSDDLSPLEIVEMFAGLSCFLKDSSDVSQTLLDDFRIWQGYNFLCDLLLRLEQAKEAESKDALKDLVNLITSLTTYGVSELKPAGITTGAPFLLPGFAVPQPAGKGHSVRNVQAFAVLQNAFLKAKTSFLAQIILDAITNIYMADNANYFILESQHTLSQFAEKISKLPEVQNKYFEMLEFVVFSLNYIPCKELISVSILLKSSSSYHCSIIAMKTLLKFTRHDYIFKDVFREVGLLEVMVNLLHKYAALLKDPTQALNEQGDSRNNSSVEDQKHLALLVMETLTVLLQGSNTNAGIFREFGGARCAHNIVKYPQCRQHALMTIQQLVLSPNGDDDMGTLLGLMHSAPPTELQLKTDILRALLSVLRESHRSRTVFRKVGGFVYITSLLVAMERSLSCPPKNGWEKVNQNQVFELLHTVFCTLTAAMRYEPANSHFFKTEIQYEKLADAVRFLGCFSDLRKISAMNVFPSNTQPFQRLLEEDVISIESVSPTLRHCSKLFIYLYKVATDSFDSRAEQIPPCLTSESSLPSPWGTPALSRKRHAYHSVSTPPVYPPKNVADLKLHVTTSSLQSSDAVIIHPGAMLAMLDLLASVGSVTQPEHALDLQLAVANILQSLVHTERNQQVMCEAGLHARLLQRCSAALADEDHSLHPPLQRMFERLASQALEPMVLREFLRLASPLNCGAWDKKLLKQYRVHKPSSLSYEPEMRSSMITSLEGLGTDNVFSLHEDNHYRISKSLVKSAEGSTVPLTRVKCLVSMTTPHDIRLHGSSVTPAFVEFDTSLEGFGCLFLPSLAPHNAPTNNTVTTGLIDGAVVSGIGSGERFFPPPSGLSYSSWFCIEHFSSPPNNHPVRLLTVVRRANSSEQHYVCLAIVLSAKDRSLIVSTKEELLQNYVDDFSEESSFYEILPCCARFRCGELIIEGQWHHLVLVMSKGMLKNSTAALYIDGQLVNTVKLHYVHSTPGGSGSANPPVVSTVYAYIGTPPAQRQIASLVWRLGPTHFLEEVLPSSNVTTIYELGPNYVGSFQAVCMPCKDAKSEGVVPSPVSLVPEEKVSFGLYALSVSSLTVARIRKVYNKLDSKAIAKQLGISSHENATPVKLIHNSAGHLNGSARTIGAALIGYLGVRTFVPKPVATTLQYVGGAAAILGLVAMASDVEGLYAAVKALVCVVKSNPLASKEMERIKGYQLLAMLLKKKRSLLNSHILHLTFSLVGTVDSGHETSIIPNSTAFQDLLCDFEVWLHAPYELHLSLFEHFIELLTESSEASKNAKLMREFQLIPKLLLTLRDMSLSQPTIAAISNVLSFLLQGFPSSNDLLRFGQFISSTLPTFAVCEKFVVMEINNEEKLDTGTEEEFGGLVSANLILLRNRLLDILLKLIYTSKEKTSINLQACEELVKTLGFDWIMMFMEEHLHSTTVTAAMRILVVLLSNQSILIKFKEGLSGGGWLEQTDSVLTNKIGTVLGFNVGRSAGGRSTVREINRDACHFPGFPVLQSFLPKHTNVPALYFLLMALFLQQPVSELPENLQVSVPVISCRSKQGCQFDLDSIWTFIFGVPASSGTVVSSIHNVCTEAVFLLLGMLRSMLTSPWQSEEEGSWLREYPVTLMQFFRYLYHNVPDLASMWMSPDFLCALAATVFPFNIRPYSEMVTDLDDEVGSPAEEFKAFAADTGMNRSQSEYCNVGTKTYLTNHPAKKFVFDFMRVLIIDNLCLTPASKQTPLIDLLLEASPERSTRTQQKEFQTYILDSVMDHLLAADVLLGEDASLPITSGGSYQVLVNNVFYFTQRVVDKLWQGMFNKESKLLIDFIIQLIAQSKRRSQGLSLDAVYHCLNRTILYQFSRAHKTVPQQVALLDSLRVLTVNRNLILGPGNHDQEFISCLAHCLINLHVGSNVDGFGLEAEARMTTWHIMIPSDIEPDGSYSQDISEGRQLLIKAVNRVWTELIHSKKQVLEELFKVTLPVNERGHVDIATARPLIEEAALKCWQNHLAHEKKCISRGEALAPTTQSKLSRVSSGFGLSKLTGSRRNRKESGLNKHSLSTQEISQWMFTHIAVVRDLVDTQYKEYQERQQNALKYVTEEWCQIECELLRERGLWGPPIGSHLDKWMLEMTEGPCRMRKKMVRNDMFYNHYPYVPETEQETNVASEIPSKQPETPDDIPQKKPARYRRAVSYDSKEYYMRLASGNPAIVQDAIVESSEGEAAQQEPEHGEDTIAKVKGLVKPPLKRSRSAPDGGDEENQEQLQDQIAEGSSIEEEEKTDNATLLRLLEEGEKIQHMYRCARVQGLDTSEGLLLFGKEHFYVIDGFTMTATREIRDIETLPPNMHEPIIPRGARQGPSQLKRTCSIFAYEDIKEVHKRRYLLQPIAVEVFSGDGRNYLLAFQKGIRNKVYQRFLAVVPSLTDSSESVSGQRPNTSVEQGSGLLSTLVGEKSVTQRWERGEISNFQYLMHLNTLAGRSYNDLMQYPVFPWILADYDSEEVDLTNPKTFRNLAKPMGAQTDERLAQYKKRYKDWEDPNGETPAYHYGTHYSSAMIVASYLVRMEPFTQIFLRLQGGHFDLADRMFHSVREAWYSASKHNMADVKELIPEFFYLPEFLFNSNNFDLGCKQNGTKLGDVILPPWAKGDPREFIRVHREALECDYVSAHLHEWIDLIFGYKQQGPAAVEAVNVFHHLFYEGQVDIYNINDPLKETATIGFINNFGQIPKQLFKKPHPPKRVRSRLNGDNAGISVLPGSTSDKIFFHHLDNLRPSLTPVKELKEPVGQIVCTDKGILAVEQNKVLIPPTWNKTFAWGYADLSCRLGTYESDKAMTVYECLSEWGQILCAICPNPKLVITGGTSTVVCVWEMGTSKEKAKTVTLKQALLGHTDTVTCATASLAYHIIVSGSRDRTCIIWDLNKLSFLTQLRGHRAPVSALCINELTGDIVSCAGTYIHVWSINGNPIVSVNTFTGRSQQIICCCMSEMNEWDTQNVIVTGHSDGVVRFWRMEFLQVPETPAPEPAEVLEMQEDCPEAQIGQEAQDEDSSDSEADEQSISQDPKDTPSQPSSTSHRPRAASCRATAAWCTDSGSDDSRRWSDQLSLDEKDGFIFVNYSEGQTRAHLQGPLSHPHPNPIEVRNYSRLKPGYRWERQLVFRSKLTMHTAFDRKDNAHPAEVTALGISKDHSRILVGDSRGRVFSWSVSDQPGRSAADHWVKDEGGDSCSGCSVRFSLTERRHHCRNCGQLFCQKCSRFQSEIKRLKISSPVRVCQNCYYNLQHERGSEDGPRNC

Variant | effect of a mutation on the interaction
K771T | disrupting interaction

— IntAct's records for PubMed 20417604
